Molecular target: mtDsbC-SARS-CoV-2 RBD Alpha variant (B.1.1.7) fusion protein (SARS-CoV-2) (UniProt P0DTC2)
Test: BLI; biotinylated mtDsbC-RBD (20 µg/mL) immobilised on streptavidin (SA) biosensors, Fabs as analytes at three nanomolar concentrations; Octet RED384, 30 °C, 1000 rpm, 1 × PBS Kinetics Buffer; 1:1 interaction model, global fit

REGN10987 (L93Q) Fab
Kd: > 1000 nM
